Measurements reported in publication PMC7356578, “Heparin Blocks the Inhibition of Tissue Kallikrein 1 by Kallistatin through Electrostatic Repulsion” (Biomolecules, 2020).

B1: Recombinant human kallistatin (rKAL), wild type (natural protein, UniProt P29622 45-427, looked up)
chain: GSPSLKIAPANADFAFRFYYLIASETPGKNIFFSPLSISAAYAMLSLGACSHSRSQILEGLGFNLTELSESDVHRGFQHLLHTLNLPGHGLETRVGSALFLSHNLKFLAKFLNDTMAVYEAKLFHTNFYDTVGTIQLINDHVKKETRGKIVDLVSELKKDVLMVLVNYIYFKALWEKPFISSRTTPKDFYVDENTTVRVPMMLQDQEHHWYLHDRYLPCSVLRMDYKGDATVFFILPNQGKMREIEEVLTPEMLMRWNNLLRKRNFYKKLELHLPKFSISGSYVLDQILPRLGFTDLFSKWADLSGITKQQKLEASKSFHKATLDVDEAGTEAAAATSFAIKFFSAQTNRHILRFNRPFLVVIFSTSTQSVLFLGKVVDPTKP
notes: kallistatin (SERPINA4), human, residues 45-427; Vector pE-SUMO3; purified on a HisTrap column, so the SUMO3 fusion probably carries a His tag that leaves with SUMO3; During storage or crystallisation part of the protein is cleaved between F387 and F388 (P2-P1) by an unknown protease; the crystal structures hold this cleaved form; also called rKAL-WT; SERPINA4; source: E. coli BL21 (DE3), purified …
B2: rKAL-312/313D (natural protein, human, UniProt P29622 45-427, looked up)
chain: GSPSLKIAPANADFAFRFYYLIASETPGKNIFFSPLSISAAYAMLSLGACSHSRSQILEGLGFNLTELSESDVHRGFQHLLHTLNLPGHGLETRVGSALFLSHNLKFLAKFLNDTMAVYEAKLFHTNFYDTVGTIQLINDHVKKETRGKIVDLVSELKKDVLMVLVNYIYFKALWEKPFISSRTTPKDFYVDENTTVRVPMMLQDQEHHWYLHDRYLPCSVLRMDYKGDATVFFILPNQGKMREIEEVLTPEMLMRWNNLLRKRNFYDDLELHLPKFSISGSYVLDQILPRLGFTDLFSKWADLSGITKQQKLEASKSFHKATLDVDEAGTEAAAATSFAIKFFSAQTNRHILRFNRPFLVVIFSTSTQSVLFLGKVVDPTKP
notes: kallistatin (SERPINA4), human, residues 45-427; double mutant of K312 and K313 to Asp; also called rKAL-K312/313D; source: E. coli BL21 (DE3), purified (HisTrap FF crude, SENP2 digestion, HiTrap SP)
B3: Recombinant human tissue kallikrein 1 (KLK1), wild type (enzyme)
chain: not shown
notes: tissue kallikrein 1 (KLK1), human, residues 25-262; Vector pE-SUMO3; also called kallikrein-related peptidase 1
B4: rKAL-R259D (natural protein, human, UniProt P29622 45-427, looked up)
chain: GSPSLKIAPANADFAFRFYYLIASETPGKNIFFSPLSISAAYAMLSLGACSHSRSQILEGLGFNLTELSESDVHRGFQHLLHTLNLPGHGLETRVGSALFLSHNLKFLAKFLNDTMAVYEAKLFHTNFYDTVGTIQLINDHVKKETRGKIVDLVSELKKDVLMVLVNYIYFKALWEKPFISSRTTPKDFYVDENTTVRVPMMLQDQEHHWYLHDDYLPCSVLRMDYKGDATVFFILPNQGKMREIEEVLTPEMLMRWNNLLRKRNFYKKLELHLPKFSISGSYVLDQILPRLGFTDLFSKWADLSGITKQQKLEASKSFHKATLDVDEAGTEAAAATSFAIKFFSAQTNRHILRFNRPFLVVIFSTSTQSVLFLGKVVDPTKP
notes: kallistatin (SERPINA4), human, residues 45-427; source: E. coli BL21 (DE3), purified (HisTrap FF crude, SENP2 digestion, HiTrap SP)
B5: rKAL-R394D (natural protein, human, UniProt P29622 45-427, looked up)
chain: GSPSLKIAPANADFAFRFYYLIASETPGKNIFFSPLSISAAYAMLSLGACSHSRSQILEGLGFNLTELSESDVHRGFQHLLHTLNLPGHGLETRVGSALFLSHNLKFLAKFLNDTMAVYEAKLFHTNFYDTVGTIQLINDHVKKETRGKIVDLVSELKKDVLMVLVNYIYFKALWEKPFISSRTTPKDFYVDENTTVRVPMMLQDQEHHWYLHDRYLPCSVLRMDYKGDATVFFILPNQGKMREIEEVLTPEMLMRWNNLLRKRNFYKKLELHLPKFSISGSYVLDQILPRLGFTDLFSKWADLSGITKQQKLEASKSFHKATLDVDEAGTEAAAATSFAIKFFSAQTNDHILRFNRPFLVVIFSTSTQSVLFLGKVVDPTKP
notes: as for B4
B6: rKAL-R300D (natural protein, human, UniProt P29622 45-427, looked up)
chain: GSPSLKIAPANADFAFRFYYLIASETPGKNIFFSPLSISAAYAMLSLGACSHSRSQILEGLGFNLTELSESDVHRGFQHLLHTLNLPGHGLETRVGSALFLSHNLKFLAKFLNDTMAVYEAKLFHTNFYDTVGTIQLINDHVKKETRGKIVDLVSELKKDVLMVLVNYIYFKALWEKPFISSRTTPKDFYVDENTTVRVPMMLQDQEHHWYLHDRYLPCSVLRMDYKGDATVFFILPNQGKMREIEEVLTPEMLMDWNNLLRKRNFYKKLELHLPKFSISGSYVLDQILPRLGFTDLFSKWADLSGITKQQKLEASKSFHKATLDVDEAGTEAAAATSFAIKFFSAQTNRHILRFNRPFLVVIFSTSTQSVLFLGKVVDPTKP
notes: as for B4
B7: rKAL-307/308D (natural protein, human, UniProt P29622 45-427, looked up)
chain: GSPSLKIAPANADFAFRFYYLIASETPGKNIFFSPLSISAAYAMLSLGACSHSRSQILEGLGFNLTELSESDVHRGFQHLLHTLNLPGHGLETRVGSALFLSHNLKFLAKFLNDTMAVYEAKLFHTNFYDTVGTIQLINDHVKKETRGKIVDLVSELKKDVLMVLVNYIYFKALWEKPFISSRTTPKDFYVDENTTVRVPMMLQDQEHHWYLHDRYLPCSVLRMDYKGDATVFFILPNQGKMREIEEVLTPEMLMRWNNLLRDDNFYKKLELHLPKFSISGSYVLDQILPRLGFTDLFSKWADLSGITKQQKLEASKSFHKATLDVDEAGTEAAAATSFAIKFFSAQTNRHILRFNRPFLVVIFSTSTQSVLFLGKVVDPTKP
notes: kallistatin (SERPINA4), human, residues 45-427; double mutant of K307 and R308 to Asp; also called rKAL-K307/308D; source: E. coli BL21 (DE3), purified (HisTrap FF crude, SENP2 digestion, HiTrap SP)

Assays:
Conditions in all cases: both partners purified
[1] = target: B3; test: kinetics of protease inhibition (discontinuous assay); pseudo-first-order; 10 nM protease with 100-500 nM kallistatin variant, PBS, 0.1% PEG 8000, 22 ± 1 °C; apparent second-order rate constant kapp from kobs; k2 = kapp × SI
[2] = target: B3; test: stoichiometry of inhibition by titration of residual protease activity; 1 µM protease with increasing kallistatin variant in PBS, 0.1% PEG 8000, 2 h, 37 °C; residual activity on 0.2 mM H-D-Val-Leu-Arg-AMC; intercept on the abscissa
[3] = target: B1; test: SDS-stable covalent serpin-protease complex on reducing SDS-PAGE; 2 µg rKAL mixed with 0.5-1 µg KLK1 (2-3 min), 5 µg KLK1-99Lm (20 min) or 0.5 µg KLK1-70Lm (2 min) at room temperature, no heparin; Coomassie stain

Row | Binder | k2 (kapp × SI, second-order rate constant) [1] | kapp (apparent second-order rate constant) [1] | SI (stoichiometry of inhibition) [2] | binding result [3]
1 | B1 | 3400 M⁻¹ s⁻¹ | 2400 M⁻¹ s⁻¹ | 1.4 | 
2 | B2 | 1500 M⁻¹ s⁻¹ | 1000 M⁻¹ s⁻¹ | 1.5 | 
3 | B3 |  |  |  | binds
4 | B4 | 3500 M⁻¹ s⁻¹ | 2200 M⁻¹ s⁻¹ | 1.6 | 
5 | B5 | 1800 M⁻¹ s⁻¹ | 1000 M⁻¹ s⁻¹ | 1.8 | 
6 | B6 | 2900 M⁻¹ s⁻¹ | 1600 M⁻¹ s⁻¹ | 1.8 | 
7 | B7 | 2000 M⁻¹ s⁻¹ | 1300 M⁻¹ s⁻¹ | 1.5 | 
